Measured values as given in US12269859B2, “Synthetic immune receptors and methods of use thereof” (Angeles Therapeutics, Inc., priority 2016, dated 2025).

System: target antigen-expressing cell line
Assay: Jurkat NFAT-GFP assay, coculture with target cell lines expressing the respective target antigen (summary Table 10A)
Format: cell-based, human
Set-up: key: The signs +/−, +, 2+ etc. after the name of the cell lines indicate the relative degree of positivity on the Jurkat-NFAT-GFP assay as measured by the % GFP positive cells; +: relative degree of positivity on the Jurkat-NFAT-GFP assay as measured by the % GFP positive cells; 2+: relative degree of positivity on the Jurkat-NFAT-GFP assay as measured by the % GFP positive cells
Method in brief: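 Jurkat cells carrying an NFAT-site IL-2 promoter driving GFP were lentivirally transduced with SIRs, puromycin-selected, then cocultured with antigen-expressing target cells at E:T about 1:2 for about 4–18 hours. GFP induction was read by flow cytometry as % GFP-positive cells versus parental Jurkat-NFAT-GFP.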

Molecule	NFAT-GFP ASSAY Positive Cell lines (coculture with NALM6 cells)	NFAT-GFP ASSAY Positive Cell lines (coculture with RAJI cells)	NFAT-GFP ASSAY Positive Cell lines (coculture with Bv173 cells)	NFAT-GFP ASSAY Positive Cell lines (coculture with KG1 cells)	NFAT-GFP ASSAY Positive Cell lines (coculture with MOLM13 cells)	NFAT-GFP ASSAY Positive Cell lines (coculture with THP1 cells)	NFAT-GFP ASSAY Positive Cell lines (coculture with L363 cells)	NFAT-GFP ASSAY Positive Cell lines (coculture with U266 cells)
010417-Z03 (protein) MALPVTALLLPLALLLHAARPLEGKPIPNPLLGLDSTGSGEDLKNVFPPEVAVFEPSKAEIAHTQKATLVCLATGFYPDHVELSWWVNGKEVHSGVCTDPQPLKEQPALNDSRYCLSSRLRVSATFWQNPRNHFRCQVQFYGLSENDEWTQDRAKPVTQIVSAEAWGRADCGITSASYHQGVLSATILYEILLGKATLYAVLVSALVLMAMVKRKDSRGRAKRSGSGATNFSLLKQAGDVEENPGPTSTMALPVTALLLPLALLLHAARPDIQMTQSPSSLSASVGDRVTITCKASQDVGIAVAWYQQKPGKVPKLLIYWASTRHTGVPDRFSGSGSGTDFTLTISSLQPEDVATYYCQQYSSYPYTFGQGTKVEIKGGGGSGGGGSGGGGSEVQLVESGGGLVQPGGSLRLSCAASGFDFSRYWMSWVRQAPGKGLEWIGEINPDSSTINYAPSLKDKFIISRDNAKNSLYLQMNSLRAEDTAVYYCARPDGNYWYFDVWGQGTLVTVSSTREAAAKEIVMTQSPATLSLSPGERATLSCRASQDISKYLNWYQQKPGQAPRLLIYHTSRLHSGIPARFSGSGSGTDYTLTISSLQPEDFAVYFCQQGNTLPYTFGQGTKLEIKGGGGSGGGGSGGGGSQVQLQESGPGLVKPSETLSLTCTVSGVSLPDYGVSWIRQPPGKGLEWIGVIWGSETTYYNSSLKSRVTISKDNSKNQVSLKLSSVTAADTAVYYCAKHYYYGGSYAMDYWGQGTLVTVSSTREQKLISEEDGSGIQNPDPAVYQLRDSKSSDKSVCLFTDFDSQTNVSQSKDSDVYITDKCVLDMRSMDFKSNSAVAWSNKSDFACANAFNNSIIPEDTFFPSSDVPCDVKLVEKSFETDTNLNFQNLSVIGFRILLLKVAGFNLLMTLRLWSSRAKRSGSGVKQTLNFDLLKLAGDVESNPGPSRGHMTEYKPTVRLATRDDVPRAVRTLAAAFADYPATRHTVDPDRHIERVTELQELFLTRVGLDIGKVWVADDGAAVAVWTTPESVEAGAVFAEIGPRMAELSGSRLAAQQQMEGLLAPHRPKEPAWFLATVGVSPDHQGKGLGSAVVLPGVEAAERAGVPAFLETSAPRNLPFYERLGFTVTADVEVPEGPRTWCMTRKPGA	NALM6	RAJI	–	–	–	–	–	–
111915-U05 (protein, Polynucleotide encoding a Synthetic Immune Receptor (SIR)) MALPVTALLLPLALLLHAARPDEFEVQLVESGGGLVQAGGSLRLSCVASGISSSKRNMGWYRQAPGKQRESVATISSGGNKDYTDAVKDRFTISRDTTKNTVYLQMNSLKPEDTAVYYCKIEAGTGWATRRGYTYWGQGTLVTVSSLEGKPIPNPLLGLDSTGSGEDLKNVFPPEVAVFEPSEAEISHTQKATLVCLATGFYPDHVELSWWVNGKEVHSGVCTDPQPLKEQPALNDSRYCLSSRLRVSATFWQNPRNHFRCQVQFYGLSENDEWTQDRAKPVTQIVSAEAWGRADCGFTSESYQQGVLSATILYEILLGKATLYAVLVSALVLMAMVKRKDSRGRAKRSGSGATNFSLLKQAGDVEENPGPTSMDWIWRILFLVGAATGAHSFEVQLVESGGGSVQPGGSLTLSCGTSGRTFNVMGWFRQAPGKEREFVAAVRWSSTGIYYTQYADSVKSRFTISRDNAKNTVYLEMNSLKPEDTAVYYCAADTYNSNPARWDGYDFRGQGTQVTVSSTREQKLISEEDGSGIQNPDPAVYQLRDSKSSDKSVCLFTDFDSQTNVSQSKDSDVYITDKCVLDMRSMDFKSNSAVAWSNKSDFACANAFNNSIIPEDTFFPSPESSCDVKLVEKSFETDTNLNFQNLSVIGFRILLLKVAGFNLLMTLRLWSSRAKRSGSGVKQTLNFDLLKLAGDVESNPGPSRGHMTEYKPTVRLATRDDVPRAVRTLAAAFADYPATRHTVDPDRHIERVTELQELFLTRVGLDIGKVWVADDGAAVAVWTTPESVEAGAVFAEIGPRMAELSGSRLAAQQQMEGLLAPHRPKEPAWFLATVGVSPDHQGKGLGSAVVLPGVEAAERAGVPAFLETSAPRNLPFYERLGFTVTADVEVPEGPRTWCMTRKPGA	–	–	(+/−), THP1 (+/−),	KG1 (2+)	MOLM13 (+/−), Bv173	(+/−), THP1 (+/−),	–	–
010417-V07 (protein) MALPVTALLLPLALLLHAARPLEGKPIPNPLLGLDSTGSGEDLKNVFPPEVAVFEPSKAEIAHTQKATLVCLATGFYPDHVELSWWVNGKEVHSGVCTDPQPLKEQPALNDSRYCLSSRLRVSATFWQNPRNHFRCQVQFYGLSENDEWTQDRAKPVTQIVSAEAWGRADCGITSASYHQGVLSATILYEILLGKATLYAVLVSALVLMAMVKRKDSRGRAKRSGSGATNFSLLKQAGDVEENPGPTSTMALPVTALLLPLALLLHAARPDIQMTQSPSSLSASVGDRVTITCKASQDVGIAVAWYQQKPGKVPKLLIYWASTRHTGVPDRFSGSGSGTDFTLTISSLQPEDVATYYCQQYSSYPYTFGQGTKVEIKGGGGSGGGGSGGGGSEVQLVESGGGLVQPGGSLRLSCAASGFDFSRYWMSWVRQAPGKGLEWIGEINPDSSTINYAPSLKDKFIISRDNAKNSLYLQMNSLRAEDTAVYYCARPDGNYWYFDVWGQGTLVTVSSTREAAAKEIVLTQSPATLSLSPGERATLSCSASSSVSYMHWYQQKPGQAPRLLIYDTSKLASGIPARFSGSGSGTDFTLTISSLEPEDVAVYYCFQGSVYPFTFGQGTKLEIKRGGGGSGGGGSGGGGSQVQLQESGPGLVKPSQTLSLTCTVSGGSISTSGMGVGWIRQHPGKGLEWIGHIWWDDDKRYNPALKSRVTISVDTSKNQFSLKLSSVTAADTAVYYCARMELWSYYFDYWGQGTLVTVSSTREQKLISEEDGSGIQNPDPAVYQLRDSKSSDKSVCLFTDFDSQTNVSQSKDSDVYITDKCVLDMRSMDFKSNSAVAWSNKSDFACANAFNNSIIPEDTFFPSSDVPCDVKLVEKSFETDTNLNFQNLSVIGFRILLLKVAGFNLLMTLRLWSSRAKRSGSGVKQTLNFDLLKLAGDVESNPGPSRGHMTEYKPTVRLATRDDVPRAVRTLAAAFADYPATRHTVDPDRHIERVTELQELFLTRVGLDIGKVWVADDGAAVAVWTTPESVEAGAVFAEIGPRMAELSGSRLAAQQQMEGLLAPHRPKEPAWFLATVGVSPDHQGKGLGSAVVLPGVEAAERAGVPAFLETSAPRNLPFYERLGFTVTADVEVPEGPRTWCMTRKPGA	(+), L363 (+), U266	RAJI (+), NALM6	–	–	–	–	(+), L363 (+), U266	(+)
022817-N08 (protein) MALPVTALLLPLALLLHAARPDVVMTQTPLSLSVTPGQPASISCRSSQSLVHNNGNTYLHWYLQKPGQSPQLLIYKVSNRFSGVPDRFSGSGSGTDFTLKISRVEAEDVGVYFCSQSTHVPPYTFGGGTKVEIKLEEQKLISEEDLGSGEDLKNVFPPEVAVFEPSKAEIAHTQKATLVCLATGFYPDHVELSWWVNGKEVHSGVCTDPQPLKEQPALNDSRYCLSSRLRVSATFWQNPRNHFRCQVQFYGLSENDEWTQDRAKPVTQIVSAEAWGRADCGITSASYHQGVLSATILYEILLGKATLYAVLVSALVLMAMVKRKDSRGRAKRSGSGATNFSLLKQAGDVEENPGPTSMDWIWRILFLVGAATGAHSFEEVQLVESGGGLVQPGGSLRLSCAASGFTFSDYYMAWVRQAPGKGLEWVAEINYDGSSTYYVDSVKGRFTISRDNAKNSLYLQMNSLRAEDTAVYYCARDRGFYFDYWGQGTTVTVSSTREQKLISEEDLGSGIQNPDPAVYQLRDSKSSDKSVCLFTDFDSQTNVSQSKDSDVYITDKCVLDMRSMDFKSNSAVAWSNKSDFACANAFNNSIIPEDTFFPSSDVPCDVKLVEKSFETDTNLNFQNLSVIGFRILLLKVAGFNLLMTLRLWSSRAKRSGSGVKQTLNFDLLKLAGDVESNPGPSRGHMTEYKPTVRLATRDDVPRAVRTLAAAFADYPATRHTVDPDRHIERVTELQELFLTRVGLDIGKVWVADDGAAVAVWTTPESVEAGAVFAEIGPRMAELSGSRLAAQQQMEGLLAPHRPKEPAWFLATVGVSPDHQGKGLGSAVVLPGVEAAERAGVPAFLETSAPRNLPFYERLGFTVTADVEVPEGPRTWCMTRKPGA	–	–	–	–	–	–	(+/−)	U266 (+/−), L363
